According to patent publication US20200157212A1 (Pfizer, published 2020):

T1: Terbium (Tb) labeled-SNAP tagged ROBO2 expressed on HEK293 cells (Homo sapiens (Human), UniProt Q9HCK4 22-1378, terbium label on the SNAP tag)
T1 construct: also called Tb-labeled ROBO2 cells; ROBO2 expressing cells; not shown: SNAP tag
T1 sequence: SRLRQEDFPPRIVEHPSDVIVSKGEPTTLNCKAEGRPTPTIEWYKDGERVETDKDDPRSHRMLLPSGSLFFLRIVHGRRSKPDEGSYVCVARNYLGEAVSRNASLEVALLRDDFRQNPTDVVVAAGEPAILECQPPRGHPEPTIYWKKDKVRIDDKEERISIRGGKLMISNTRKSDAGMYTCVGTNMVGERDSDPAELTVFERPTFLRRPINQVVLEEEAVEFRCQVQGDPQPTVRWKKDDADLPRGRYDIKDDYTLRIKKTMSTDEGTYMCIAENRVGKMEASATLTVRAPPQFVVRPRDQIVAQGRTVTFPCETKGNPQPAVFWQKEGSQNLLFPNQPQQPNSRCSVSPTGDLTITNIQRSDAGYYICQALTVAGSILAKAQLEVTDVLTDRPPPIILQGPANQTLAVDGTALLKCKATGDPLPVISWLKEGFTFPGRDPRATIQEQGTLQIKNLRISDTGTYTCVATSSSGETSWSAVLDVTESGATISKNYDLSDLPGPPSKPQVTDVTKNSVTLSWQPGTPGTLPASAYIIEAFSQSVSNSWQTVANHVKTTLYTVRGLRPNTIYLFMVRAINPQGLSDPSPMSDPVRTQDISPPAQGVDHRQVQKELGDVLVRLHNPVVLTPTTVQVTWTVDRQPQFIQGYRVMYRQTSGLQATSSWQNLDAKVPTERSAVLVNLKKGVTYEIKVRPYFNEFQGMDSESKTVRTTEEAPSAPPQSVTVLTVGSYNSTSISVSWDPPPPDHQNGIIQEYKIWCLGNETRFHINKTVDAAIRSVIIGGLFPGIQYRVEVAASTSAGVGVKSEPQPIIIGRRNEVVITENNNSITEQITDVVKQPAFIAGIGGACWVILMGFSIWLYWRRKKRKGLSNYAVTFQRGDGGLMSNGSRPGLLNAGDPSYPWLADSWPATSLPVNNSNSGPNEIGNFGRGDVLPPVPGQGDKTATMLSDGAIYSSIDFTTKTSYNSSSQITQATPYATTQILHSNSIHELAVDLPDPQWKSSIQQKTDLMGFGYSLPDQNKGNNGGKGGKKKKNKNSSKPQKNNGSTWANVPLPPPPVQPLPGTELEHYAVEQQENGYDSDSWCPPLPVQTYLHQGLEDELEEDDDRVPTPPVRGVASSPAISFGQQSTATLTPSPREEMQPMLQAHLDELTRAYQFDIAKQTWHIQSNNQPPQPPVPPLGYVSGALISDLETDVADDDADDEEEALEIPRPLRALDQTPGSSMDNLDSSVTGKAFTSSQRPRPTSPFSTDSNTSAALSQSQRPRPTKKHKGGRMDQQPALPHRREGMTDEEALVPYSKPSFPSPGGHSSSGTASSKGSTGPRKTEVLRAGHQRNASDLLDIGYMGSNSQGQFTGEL

T2: Human ROBO2 overexpressed on HEK293 cells (human, UniProt Q9HCK4 22-1378)
T2 construct: also called ROBO2 cells; native ROBO2
T2 sequence: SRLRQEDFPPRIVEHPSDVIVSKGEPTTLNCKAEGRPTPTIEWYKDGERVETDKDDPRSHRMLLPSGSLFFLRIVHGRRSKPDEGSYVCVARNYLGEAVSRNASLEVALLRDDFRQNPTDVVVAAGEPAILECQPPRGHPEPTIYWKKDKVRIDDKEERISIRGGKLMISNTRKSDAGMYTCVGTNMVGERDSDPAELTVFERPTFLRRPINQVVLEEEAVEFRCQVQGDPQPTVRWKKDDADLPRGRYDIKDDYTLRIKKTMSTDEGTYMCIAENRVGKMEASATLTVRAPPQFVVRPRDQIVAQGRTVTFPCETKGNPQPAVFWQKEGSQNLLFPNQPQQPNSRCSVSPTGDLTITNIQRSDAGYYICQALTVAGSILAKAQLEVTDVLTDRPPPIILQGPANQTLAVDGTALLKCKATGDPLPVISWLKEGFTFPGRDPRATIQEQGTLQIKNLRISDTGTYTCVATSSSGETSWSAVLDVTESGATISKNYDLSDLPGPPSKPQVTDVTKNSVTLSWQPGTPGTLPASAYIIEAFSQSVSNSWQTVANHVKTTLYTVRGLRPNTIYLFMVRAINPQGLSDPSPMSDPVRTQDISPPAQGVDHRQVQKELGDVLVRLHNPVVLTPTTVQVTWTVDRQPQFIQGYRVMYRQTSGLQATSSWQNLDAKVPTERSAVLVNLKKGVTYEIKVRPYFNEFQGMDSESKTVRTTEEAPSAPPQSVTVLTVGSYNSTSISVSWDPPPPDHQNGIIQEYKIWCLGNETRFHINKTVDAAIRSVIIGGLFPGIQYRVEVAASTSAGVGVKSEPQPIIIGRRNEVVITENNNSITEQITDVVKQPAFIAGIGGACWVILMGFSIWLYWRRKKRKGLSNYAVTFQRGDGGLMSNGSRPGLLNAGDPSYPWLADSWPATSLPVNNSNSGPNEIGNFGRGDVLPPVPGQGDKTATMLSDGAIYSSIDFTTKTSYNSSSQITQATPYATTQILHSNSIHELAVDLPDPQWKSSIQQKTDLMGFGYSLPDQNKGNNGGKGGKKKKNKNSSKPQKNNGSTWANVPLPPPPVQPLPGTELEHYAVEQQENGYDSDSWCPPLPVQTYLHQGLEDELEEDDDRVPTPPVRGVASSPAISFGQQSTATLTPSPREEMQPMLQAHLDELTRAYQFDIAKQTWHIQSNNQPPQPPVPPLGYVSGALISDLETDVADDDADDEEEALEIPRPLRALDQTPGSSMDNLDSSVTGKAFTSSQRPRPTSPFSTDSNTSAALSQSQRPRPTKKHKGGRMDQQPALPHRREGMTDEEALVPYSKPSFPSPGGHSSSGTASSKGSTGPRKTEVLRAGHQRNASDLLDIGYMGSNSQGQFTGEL


Columns and labels:
[1] = biological target: T1, Terbium (Tb) labeled-SNAP tagged ROBO2 …; assay: HTRF, 5 nM d2-SLIT2-N on Tb-SNAP-ROBO2 HEK293 cells, 1 nM antibody
Method: In this assay, terbium (Tb) labeled-SNAP tagged ROBO2 expressing HEK293 cells were incubated with 5 nM d2-labeled SLIT-2N in the presence of 1 nM anti-ROBO2 antibodies for 1 hour. After incubation, fluorescence at 665 nm and 620 nm was measured on an Envision multilabel plate reader. […] Maximal signal was defined as the HTRF ratio of Tb-labeled ROBO2 cells with d2-labeled SLIT2-N in the absence of antibody, the minimum signal was defined as the HTRF ratio of Tb-labeled ROBO2 expressing HEK293 cells only. One nanomolar (nM) parental antibody, 93H2, was unable to block the HTRF assay, therefore this concentration was selected to identify clones with a higher affinity than 93H2 (Table 2, HTRF Ratio column). […] Antibodies derived from chain (Abcs series) or CDR shuffling (CTIR-2 series) were evaluated in 11-point, 5-fold dilution series with a top concentration of 1500 nM (Table 2 HTRF IC₅₀).
HTRF assays were run with 5 nM d2-labeled SLIT2-N and antibodies were added at 1 nM. […] Antibodies derived from chain (Abcs series) or CDR shuffling (CTIR-2 series) were evaluated in 11-point, 5-fold dilution series with a top concentration of 1500 nM, N.T. = not tested; ^cFold selectivity was calculated as Geometric Mean Fluorescent Intensity (Geo MFI) of ROBO2/Geo MFI of ROBO1 binding.

[2] = biological target: T2, Human ROBO2 overexpressed on HEK293 …; assay: flow cytometry on HEK293 cells overexpressing human ROBO2; N.B. = No binding to ROBO2
Method: The parental 93H2 antibody was highly ROBO2 specific, therefore affinity matured antibodies with single point neutralizing activity were screened by flow cytometry to ensure ROBO2 selectivity had been maintained. […] Binding of the antibodies was detected using a secondary fluorochrome conjugated anti-human IgG F(ab′)₂ antibody and samples were analyzed on a Fortessa cytometer (BD Biosciences). The fold ROBO2 selectivity was calculated as the geometric mean fluorescence intensity (Geo MFI) with ROBO2 cells/Geo MFI with ROBO1 cells. A fold change higher than 3 was considered to be ROBO2 specific (Table 2, Fold Selectivity). Some affinity matured clones had increased ROBO1 reactivity, for example Abcs 55, CTI-R2-10 and CTIR2-13.
Table 2 is a summary of assays used to screen antibodies against ROBO1 and/or ROBO2 to identify an antibody that specifically recognized ROBO2 but not ROBO1 with high affinity. […] Full dose curves were performed in the same assay for select antibodies. Recognition of native, surface expressed protein and ROBO2 selectivity was evaluated by flow cytometry. […] Anything with a value of greater than 3 was deemed to be selective for ROBO2. Outcomes of the various screening assays conducted for each antibody are highlighted in the final column.

Binder	HTRF Ratio [1]	binding result [2]
Ab1 (antibody, human IgG1, kappa, V domains shown, full-length human IgG) VH: EVQLVQSGAEVKKPGASVKVSCKASGYTFTGYDMHWVRQAPGQGLEWMGWINPNSGATNFPQKFQGRVTMTRDTSITTAYMDLSRLRSDDTAVYYCARESGDDAFDIWGQGTMVTVSS VL: DIVMTQSPSSLSASVGDRVTITCRASQKISSYLNWYQQKPGKAPKLLIYAASSLQSGVPSRFSGSGSGTDFTLTISSLQPEDFATYYCQQSYSTSFGGGTKVEIKR	14000	no binding (tested: 0.1 µg/ml)
Ab9 (antibody, human IgG1, kappa, V domains shown, full-length human IgG) VH: EVQLVQSGAEVKKPGASVKVSCKASGYTFTGYDMHWVRQAPGQGLEWMGWINPNSGATNFPQKFQGRVTMTRDTSITTAYMDLSRLRSDDTAVYYCARESGDDAFDIWGQGTMVTVSS VL: DIVMTQSPSSLSASVGDRVTITCRASQRISSYLNWYQQKPGKAPKLLIYAASSLQSGVPSRFSGSGSGTDFTLTISSLQPEDFATYYCQQSYSTSFGGGTKVEIKR	13600	no binding (tested: 0.1 µg/ml)
Ab13 (antibody, human IgG1, kappa, V domains shown, full-length human IgG) VH: EVQLVQSGAEVKKPGASVKVSCKASGYTFTGYDMHWVRQAPGQGLEWMGWINPNSGATNFPQKFQGRVTMTRDTSITTAYMDLSRLRSDDTAVYYCARESGDDAFDIWGQGTMVTVSS VL: DIVMTQSPSSLSASVGDRVTITCRASQSISSYLNWYQQKPGKAPKLLIYAASSLQDGVPSRFSGSGSGTDFTLTISSLQPEDFATYYCQQSYSTSFGGGTKVEIKR	13800	no binding (tested: 0.1 µg/ml)
